Columns and labels:
[1] = system: HeLa Kyoto; assay: solubility in G1/S (NP-40 vs SDS abundance) (log2 ratio); higher = more soluble; details: cell cycle stage: G1/S
[2] = system: HeLa Kyoto; assay: melting temperature (median over replicates), in situ; higher = more thermally stable
[3] = system: HeLa Kyoto; assay: thermal stability score vs G1/S (z-score of summed log2 fold changes over temperatures); higher = more thermally stable than in G1/S
[4] = system: HeLa Kyoto; assay: solubility change mitosis vs G1/S (difference of NP-40 vs SDS log2 ratios) (log2 ratio difference); higher = more soluble in mitosis
[5] = cell cycle stage: early G1 (4.5 h after nocodazole release)
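For melting temperature (median over replicates), in situ in this document: HeLa Kyoto cells synchronized by double thymidine or nocodazole block, proteins quantified by TMT10plex mass spectrometry, three independent biological replicates.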
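For solubility change mitosis vs G1/S (difference of NP-40 vs SDS log2 ratios) in this document: synchronized HeLa Kyoto cells (double thymidine block for G1/S, nocodazole release for mitosis), protein amounts in NP-40 versus SDS lysates quantified by mass spectrometry, three biological replicates.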
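For solubility in G1/S (NP-40 vs SDS abundance) in this document: HeLa Kyoto cells arrested at G1/S by double thymidine block, proteins quantified by TMT10plex mass spectrometry in mild NP-40 versus SDS extracts, three biological replicates.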
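For thermal stability score vs G1/S (z-score of summed log2 fold changes over temperatures) in this document: synchronized HeLa Kyoto cells, proteins quantified by TMT10plex mass spectrometry, three biological replicates, mitosis taken 0.5 h after nocodazole release, G1/S directly after double thymidine block.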

Chain of PRRC2B (chain, as listed by the source): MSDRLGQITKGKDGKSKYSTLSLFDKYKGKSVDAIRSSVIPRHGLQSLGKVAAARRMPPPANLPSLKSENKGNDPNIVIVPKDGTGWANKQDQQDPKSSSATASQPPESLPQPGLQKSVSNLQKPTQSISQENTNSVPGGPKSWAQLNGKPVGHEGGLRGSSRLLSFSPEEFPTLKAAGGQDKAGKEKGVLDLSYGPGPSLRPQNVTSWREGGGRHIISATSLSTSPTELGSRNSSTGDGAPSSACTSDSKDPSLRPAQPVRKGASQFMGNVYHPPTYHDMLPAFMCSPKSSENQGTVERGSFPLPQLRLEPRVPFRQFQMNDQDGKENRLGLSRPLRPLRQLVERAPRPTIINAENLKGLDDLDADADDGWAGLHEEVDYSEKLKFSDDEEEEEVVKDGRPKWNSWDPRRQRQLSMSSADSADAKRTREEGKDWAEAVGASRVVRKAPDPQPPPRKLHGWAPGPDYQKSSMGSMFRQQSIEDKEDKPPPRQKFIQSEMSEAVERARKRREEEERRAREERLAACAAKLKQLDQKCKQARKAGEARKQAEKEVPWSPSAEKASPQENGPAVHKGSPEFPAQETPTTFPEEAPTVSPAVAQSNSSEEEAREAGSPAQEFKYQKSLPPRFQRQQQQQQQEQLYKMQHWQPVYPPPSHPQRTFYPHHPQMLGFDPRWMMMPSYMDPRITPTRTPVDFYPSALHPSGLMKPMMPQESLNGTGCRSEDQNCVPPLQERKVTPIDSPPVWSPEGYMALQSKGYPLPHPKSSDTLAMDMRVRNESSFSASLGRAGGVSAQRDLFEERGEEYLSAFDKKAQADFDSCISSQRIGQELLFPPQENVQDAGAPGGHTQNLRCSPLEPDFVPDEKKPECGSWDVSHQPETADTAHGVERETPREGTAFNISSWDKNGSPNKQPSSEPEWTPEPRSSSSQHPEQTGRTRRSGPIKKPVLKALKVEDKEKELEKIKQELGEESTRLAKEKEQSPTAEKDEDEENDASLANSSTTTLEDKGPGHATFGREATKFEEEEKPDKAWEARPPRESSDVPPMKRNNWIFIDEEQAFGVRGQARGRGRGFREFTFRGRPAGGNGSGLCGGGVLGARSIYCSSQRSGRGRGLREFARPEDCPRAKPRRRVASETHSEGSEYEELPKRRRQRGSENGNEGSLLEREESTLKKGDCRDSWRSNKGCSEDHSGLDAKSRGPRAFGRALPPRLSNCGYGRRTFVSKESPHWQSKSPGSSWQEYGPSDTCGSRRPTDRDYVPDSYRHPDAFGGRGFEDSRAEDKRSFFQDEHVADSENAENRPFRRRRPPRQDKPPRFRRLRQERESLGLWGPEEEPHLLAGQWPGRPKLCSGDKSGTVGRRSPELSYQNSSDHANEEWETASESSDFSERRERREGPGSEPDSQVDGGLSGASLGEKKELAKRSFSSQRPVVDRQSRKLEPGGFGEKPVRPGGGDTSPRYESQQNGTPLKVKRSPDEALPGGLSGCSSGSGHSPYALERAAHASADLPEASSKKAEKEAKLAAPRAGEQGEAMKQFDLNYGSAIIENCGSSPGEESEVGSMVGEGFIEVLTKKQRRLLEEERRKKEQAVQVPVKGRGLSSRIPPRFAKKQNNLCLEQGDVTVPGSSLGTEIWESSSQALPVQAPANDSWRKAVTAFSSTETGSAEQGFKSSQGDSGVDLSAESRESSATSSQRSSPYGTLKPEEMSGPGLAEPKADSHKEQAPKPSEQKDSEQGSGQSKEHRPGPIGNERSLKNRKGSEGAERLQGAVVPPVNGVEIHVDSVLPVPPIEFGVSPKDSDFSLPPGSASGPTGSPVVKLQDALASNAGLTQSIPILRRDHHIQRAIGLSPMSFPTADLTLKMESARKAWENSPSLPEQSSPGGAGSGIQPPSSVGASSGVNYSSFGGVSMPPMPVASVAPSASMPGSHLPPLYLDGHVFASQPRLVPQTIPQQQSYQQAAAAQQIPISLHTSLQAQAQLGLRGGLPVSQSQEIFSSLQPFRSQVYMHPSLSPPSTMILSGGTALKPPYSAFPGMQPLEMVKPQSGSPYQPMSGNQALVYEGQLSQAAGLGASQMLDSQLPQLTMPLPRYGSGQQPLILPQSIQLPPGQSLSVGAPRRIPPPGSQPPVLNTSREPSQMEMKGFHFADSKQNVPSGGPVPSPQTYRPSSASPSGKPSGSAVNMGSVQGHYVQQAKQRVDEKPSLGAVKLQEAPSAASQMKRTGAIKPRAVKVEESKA
Chain of TAF15 (chain, as listed by the source): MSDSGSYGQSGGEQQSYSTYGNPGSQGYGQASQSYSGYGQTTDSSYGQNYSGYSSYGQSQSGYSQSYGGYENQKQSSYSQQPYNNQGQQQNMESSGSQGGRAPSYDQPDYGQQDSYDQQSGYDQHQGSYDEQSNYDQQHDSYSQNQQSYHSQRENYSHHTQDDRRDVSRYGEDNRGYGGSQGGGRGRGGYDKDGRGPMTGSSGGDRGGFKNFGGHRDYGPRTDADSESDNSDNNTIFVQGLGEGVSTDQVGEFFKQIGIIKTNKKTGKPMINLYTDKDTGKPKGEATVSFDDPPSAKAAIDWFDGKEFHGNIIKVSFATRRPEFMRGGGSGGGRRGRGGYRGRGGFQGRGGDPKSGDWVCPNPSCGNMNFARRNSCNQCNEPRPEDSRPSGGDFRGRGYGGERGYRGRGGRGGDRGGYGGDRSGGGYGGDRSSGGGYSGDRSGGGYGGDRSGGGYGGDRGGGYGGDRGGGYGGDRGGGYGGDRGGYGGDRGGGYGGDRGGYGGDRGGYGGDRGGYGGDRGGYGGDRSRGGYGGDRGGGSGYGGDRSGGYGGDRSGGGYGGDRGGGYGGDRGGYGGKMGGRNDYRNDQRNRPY

Substance	solubility in G1/S (log2) [1]	melting temperature ([2]; cell cycle stage: G1/S)	melting temperature ([2]; cell cycle stage: mitosis)	thermal stability score [3, 5]	thermal stability score ([3]; cell cycle stage: mitosis)	solubility change mitosis (log2) [4]
MFQLPVNNLGSLRKARKTVKKILSDIGLEYCKEHIEDFKQFEPNDFYLKNTTWEDVGLWDPSLTKNQDYRTKPFCCSACPFSSKFFSAYKSHFRNVHSEDFENRILLNCPYCTFNADKKTLETHIKIFHAPNASAPSSSLSTFKDKNKNDGLKPKQADSVEQAVYYCKKCTYRDPLYEIVRKHIYREHFQHVAAPYIAKAGEKSLNGAVPLGSNAREESSIHCKRCLFMPKSYEALVQHVIEDHERIGYQVTAMIGHTNVVVPRSKPLMLIAPKPQDKKSMGLPPRIGSLASGNVRSLPSQQMVNRLSIPKPNLNSTGVNMMSSVHLQQNNYGVKSVGQGYSVGQSMRLGLGGNAPVSIPQQSQSVKQLLPSGNGRSYGLGSEQRSQAPARYSLQSANASSLSSGQLKSPSLSQSQASRVLGQSSSKPAAAATGPPPGNTSSTQKWKICTICNELFPENVYSVHFEKEHKAEKVPAVANYIMKIHNFTSKCLYCNRYLPTDTLLNHMLIHGLSCPYCRSTFNDVEKMAAHMRMVHIDEEMGPKTDSTLSFDLTLQQGSHTNIHLLVTTYNLRDAPAESVAYHAQNNPPVPPKPQPKVQEKADIPVKSSPQAAVPYKKDVGKTLCPLCFSILKGPISDALAHHLRERHQVIQTVHPVEKKLTYKCIHCLGVYTSNMTASTITLHLVHCRGVGKTQNGQDKTNAPSRLNQSPSLAPVKRTYEQMEFPLLKKRKLDDDSDSPSFFEEKPEEPVVLALDPKGHEDDSYEARKSFLTKYFNKQPYPTRREIEKLAASLWLWKSDIASHFSNKRKKCVRDCEKYKPGVLLGFNMKELNKVKHEMDFDAEWLFENHDEKDSRVNASKTADKKLNLGKEDDSSSDSFENLEEESNESGSPFDPVFEVEPKISNDNPEEHVLKVIPEDASESEEKLDQKEDGSKYETIHLTEEPTKLMHNASDSEVDQDDVVEWKDGASPSESGPGSQQVSDFEDNTCEMKPGTWSDESSQSEDARSSKPAAKKKATMQGDREQLKWKNSSYGKVEGFWSKDQSQWKNASENDERLSNPQIEWQNSTIDSEDGEQFDNMTDGVAEPMHGSLAGVKLSSQQA [ADNP]	-0.566	46.7 °C	49.2 °C	1.91	4.53	0.303
PRRC2B	-0.236	51.9 °C	52.2 °C	1.22	3.15	0.078
MAMVTGGWGGPGGDTNGVDKAGGYPRAAEDDSASPPGAASDAEPGDEERPGLQVDCVVCGDKSSGKHYGVFTCEGCKSFFKRSIRRNLSYTCRSNRDCQIDQHHRNQCQYCRLKKCFRVGMRKEAVQRGRIPHSLPGAVAASSGSPPGSALAAVASGGDLFPGQPVSELIAQLLRAEPYPAAAGRFGAGGGAAGAVLGIDNVCELAARLLFSTVEWARHAPFFPELPVADQVALLRLSWSELFVLNAAQAALPLHTAPLLAAAGLHAAPMAAERAVAFMDQVRAFQEQVDKLGRLQVDSAEYGCLKAIALFTPDACGLSDPAHVESLQEKAQVALTEYVRAQYPSQPQRFGRLLLRLPALRAVPASLISQLFFMRLVGKTPIETLIRDMLLSGSTFNWPYGSGQ [NR2F6]	0.0616	53.1 °C	50.3 °C	0.278	0.498	-0.047
MSFIDPYQHIIVEHQYSHKFTVVVLRATKVTKGAFGDMLDTPDPYVELFISTTPDSRKRTRHFNNDINPVWNETFEFILDPNQENVLEITLMDANYVMDETLGTATFTVSSMKVGEKKEVPFIFNQVTEMVLEMSLEVCSCPDLRFSMALCDQEKTFRQQRKEHIRESMKKLLGPKNSEGLHSARDVPVVAILGSGGGFRAMVGFSGVMKALYESGILDCATYVAGLSGSTWYMSTLYSHPDFPEKGPEEINEELMKNVSHNPLLLLTPQKVKRYVESLWKKKSSGQPVTFTDIFGMLIGETLIHNRMNTTLSSLKEKVNTAQCPLPLFTCLHVKPDVSELMFADWVEFSPYEIGMAKYGTFMAPDLFGSKFFMGTVVKKYEENPLHFLMGVWGSAFSILFNRVLGVSGSQSRGSTMEEELENITTKHIVSNDSSDSDDESHEPKGTENEDAGSDYQSDNQASWIHRMIMALVSDSALFNTREGRAGKVHNFMLGLNLNTSYPLSPLSDFATQDSFDDDELDAAVADPDEFERIYEPLDVKSKKIHVVDSGLTFNLPYPLILRPQRGVDLIISFDFSARPSDSSPPFKELLLAEKWAKMNKLPFPKIDPYVFDREGLKECYVFKPKNPDMEKDCPTIIHFVLANINFRKYRAPGVPRETEEEKEIADFDIFDDPESPFSTFNFQYPNQAFKRLHDLMHFNTLNNIDVIKEAMVESIEYRRQNPSRCSVSLSNVEARRFFNKEFLSKPKA [PLA2G4A]	-0.0367	50.3 °C	50.1 °C	1.55	0.83	-0.0979
MRSARSTALNRGEQRAVRYYSHMKLNMAEEEDYMSDSFINVQEDIRPGLPMLRQIREARRKEEKQQEANLKNRQKSLKEEEQERRDIGLKNALGCENKGFALLQKMGYKSGQALGKSGGGIVEPIPLNIKTGKSGIGHEASLKRKAEEKLESYRKKIHMKNQAEEKAAEQFRMRLKNKQDEMKLEGDLRRSQRACQQLDVQKNIQVPREAWYWLRLEEETEEDEEEKEQDEDEYKSEDLSVLEKLQILTSYLREEHLYCIWCGTAYEDKEDLSSNCPGPTSADHD [GPATCH11]	0.127	52.1 °C	52.3 °C	-1.77	-0.0183	0.138
MGTVHARSLEPLPSSGPDFGGLGEEAEFVEVEPEAKQEILENKDVVVQHVHFDGLGRTKDDIIICEIGDVFKAKNLIEVMRKSHEAREKLLRLGIFRQVDVLIDTCQGDDALPNGLDVTFEVTELRRLTGSYNTMVGNNEGSMVLGLKLPNLLGRAEKVTFQFSYGTKETSYGLSFFKPRPGNFERNFSVNLYKVTGQFPWSSLRETDRGMSAEYSFPIWKTSHTVKWEGVWRELGCLSRTASFAVRKESGHSLKSSLSHAMVIDSRNSSILPRRGALLKVNQELAGYTGGDVSFIKEDFELQLNKQLIFDSVFSASFWGGMLVPIGDKPSSIADRFYLGGPTSIRGFSMHSIGPQSEGDYLGGEAYWAGGLHLYTPLPFRPGQGGFGELFRTHFFLNAGNLCNLNYGEGPKAHIRKLAECIRWSYGAGIVLRLGNIARLELNYCVPMGVQTGDRICDGVQFGAGIRFL [SAMM50]	-0.348	56.1 °C	54.6 °C	-2.61	-4.33	-0.0834
TAF15	-0.786	51.1 °C	53.1 °C	-0.357	-4.49	0.12
MPKTISVRVTTMDAELEFAIQPNTTGKQLFDQVVKTIGLREVWFFGLQYQDTKGFSTWLKLNKKVTAQDVRKESPLLFKFRAKFYPEDVSEELIQDITQRLFFLQVKEGILNDDIYCPPETAVLLASYAVQSKYGDFNKEVHKSGYLAGDKLLPQRVLEQHKLNKDQWEERIQVWHEEHRGMLREDAVLEYLKIAQDLEMYGVNYFSIKNKKGSELWLGVDALGLNIYEQNDRLTPKIGFPWSEIRNISFNDKKFVIKPIDKKAPDFVFYAPRLRINKRILALCMGNHELYMRRRKPDTIEVQQMKAQAREEKHQKQMERAMLENEKKKREMAEKEKEKIEREKEELMERLKQIEEQTKKAQQELEEQTRRALELEQERKRAQSEAEKLAKERQEAEEAKEALLQASRDQKKTQEQLALEMAELTARISQLEMARQKKESEAVEWQQKAQMVQEDLEKTRAELKTAMSTPHVAEPAENEQDEQDENGAEASADLRADAMAKDRSEEERTTEAEKNERVQKHLKALTSELANARDESKKTANDMIHAENMRLGRDKYKTLRQIRQGNTKQRIDEFESM [MSN]	0.0519	52.1 °C	52 °C	-0.264	1.56	-0.0148
MAGVEEVAASGSHLNGDLDPDDREEGAASTAEEAAKKKRRKKKKSKGPSAAGEQEPDKESGASVDEVARQLERSALEDKERDEDDEDGDGDGDGATGKKKKKKKKKRGPKVQTDPPSVPICDLYPNGVFPKGQECEYPPTQDGRTAAWRTTSEEKKALDQASEEIWNDFREAAEAHRQVRKYVMSWIKPGMTMIEICEKLEDCSRKLIKENGLNAGLAFPTGCSLNNCAAHYTPNAGDTTVLQYDDICKIDFGTHISGRIIDCAFTVTFNPKYDTLLKAVKDATNTGIKCAGIDVRLCDVGEAIQEVMESYEVEIDGKTYQVKPIRNLNGHSIGQYRIHAGKTVPIVKGGEATRMEEGEVYAIETFGSTGKGVVHDDMECSHYMKNFDVGHVPIRLPRTKHLLNVINENFGTLAFCRRWLDRLGESKYLMALKNLCDLGIVDPYPPLCDIKGSYTAQFEHTILLRPTCKEVVSRGDDY [METAP2]	-0.0489	58.1 °C	57 °C	-2.19	-2.92	-0.0109
MEGPAEWGPEAALGPEAVLRFLAERGGRALHAELVQHFRGALGGEPEQRARARAHFKELVNAVATVRVDPADGAKYVHLKKRFCEGPSEPSGDPPRIQVTAEPEAPDGPAGPEARDRLPDAAAPESLPGQGRELGEGEPPAPAHWPPLSAGARRKNSRRDVQPLPRTPAPGPSEDLELPPHGCEEADRGSSLVGATAQRPARQNLRDLVMGSSPQLKRSVCPGGSSPGSSSGGGRGRGGGDSDSASVASSSAEEESSGGGSVTLDPLEHAWMLSASDGKWDSLEGLLTCEPGLLVKRDFITGFTCLHWAAKHGRQELLAMLVNFANKHQLPVNIDARTSGGYTALHLAAMHGHVEVVKLLVGAYDADVDIRDYSGKKASQYLSRSIAEEIKNLVGALDEGDGESAAGSGGGRWRLSKVLPSHLITYKLSHALEDGGDHHHHHHSAEGWVGGKAKDPGRKASGSSSGRIKPRLNKIRFRTQIVHTTPSFRDPEQPLEGRGEEGVGEERPVKGHSPFTLRPKSNVFG [SOWAHC]	0.325	51.2 °C	49.7 °C	0.128	-0.236	0.021
MEPEAPRRRHTHQRGYLLTRNPHLNKDLAFTLEERQQLNIHGLLPPSFNSQEIQVLRVVKNFEHLNSDFDRYLLLMDLQDRNEKLFYRVLTSDIEKFMPIVYTPTVGLACQQYSLVFRKPRGLFITIHDRGHIASVLNAWPEDVIKAIVVTDGERILGLGDLGCNGMGIPVGKLALYTACGGMNPQECLPVILDVGTENEELLKDPLYIGLRQRRVRGSEYDDFLDEFMEAVSSKYGMNCLIQFEDFANVNAFRLLNKYRNQYCTFNDDIQGTASVAVAGLLAALRITKNKLSDQTILFQGAGEAALGIAHLIVMALEKEGLPKEKAIKKIWLVDSKGLIVKGRASLTQEKEKFAHEHEEMKNLEAIVQEIKPTALIGVAAIGGAFSEQILKDMAAFNERPIIFALSNPTSKAECSAEQCYKITKGRAIFASGSPFDPVTLPNGQTLYPGQGNNSYVFPGVALGVVACGLRQITDNIFLTTAEVIAQQVSDKHLEEGRLYPPLNTIRDVSLKIAEKIVKDAYQEKTATVYPEPQNKEAFVRSQMYSTDYDQILPDCYSWPEEVQKIQTKVDQ [ME1]	0.144	56.5 °C	56.7 °C	-1.35	-1.4	-0.171
MEPEPEPAAVEVPAGRVLSARELFAARSRSQKLPQRSHGPKDFLPDGSAAQAERLRRCREELWQLLAEQRVERLGSLVAAEWRPEEGFVELKSPAGKFWQTMGFSEQGRQRLHPEEALYLLECGSIHLFHQDLPLSIQEAYQLLLTDHTVTFLQYQVFSHLKRLGYVVRRFQPSSVLSPYERQLNLDASVQHLEDGDGKRKRSSSSPRSINKKAKALDNSLQPKSLAASSPPPCSQPSQCPEEKPQESSPMKGPGGPFQLLGSLGPSPGPAREGVGCSWESGRAENGVTGAGKRRWNFEQISFPNMASDSRHTLLRAPAPELLPANVAGRETDAESWCQKLNQRKEKLSRREREHHAEAAQFQEDVNADPEVQRCSSWREYKELLQRRQVQRSQRRAPHLWGQPVTPLLSPGQASSPAVVLQHISVLQTTHLPDGGARLLEKSGGLEIIFDVYQADAVATFRKNNPGKPYARMCISGFDEPVPDLCSLKRLSYQSGDVPLIFALVDHGDISFYSFRDFTLPQDVGH [TSEN54]	0.322	48.8 °C	50 °C	0.317	0.466	-0.153

From the supplement of paper PMC5998384
